According to publication PMC9987799:

Key:
Test in all cases: two-hybrid; fluorescence-based mammalian two-hybrid: bait EDC4 (or a fragment) fused to the SV40 NLS forms nuclear dots in transfected HEp-2 cells; prey scored by immunofluorescence for co-localisation in nuclear dots 24 h after transfection; three transfections, at least 30 cells each, mean +/- …
[1] = molecular target: NLS-EDC4 (full-length EDC4, amino acids 1–1437, fused to the NLS of SV40 T antigen)
GFP-NLS-EDC4(935–1437) = molecular target: GFP-NLS-EDC4(935–1437)
[2] = molecular target: NLS-EDC4 (full-length EDC4, amino acids 1–1437, fused to the NLS of SV40 T antigen); remark: listed apart in the source

## NLS-LSm14a (SV40 T antigen NLS fused to LSm14a) (from UniProt Q8ND56 1-463) (natural protein)
[1]
  percent of cells with both proteins in the nucleus that had the two in nuclear dots: 86%

B1: CCHCR1-Myc (natural protein)
chain: MFPPSGSTGLIPPSHFQARPLSTLPRMAPTWLSDIPLVQPPGHQDVSERRLDTQRPQVTMWERDVSSDRQEPGRRGRSWGLEGSQALSQQAEVIVRQLQELRRLEEEVRLLRETSLQQKMRLEAQAMELEALARAEKAGRAEAEGLRAALAGAEVVRKNLEEGSQRELEEVQRLHQEQLSSLTQAHEEALSSLTSKAEGLEKSLSSLETRRAGEAKELAEAQREAELLRKQLSKTQEDLEAQVTLVENLRKYVGEQVPSEVHSQTWELERQKLLETMQHLQEDRDSLHATAELLQVRVQSLTHILALQEEELTRKVQPSDSLEPEFTRKCQSLLNRWREKVFALMVQLKAQELEHSDSVKQLKGQVASLQEKVTSQSQEQAILQRSLQDKAAEVEVERMGAKGLQLELSRAQEARRRWQQQTASAEEQLRLVVNAVSSSQIWLETTMAKVEGAAAQLPSLNNRLSYAVRKVHTIRGLIARKLALAQLRQESCPLPPPVTDVSLELQQLREERNRLDAELQLSARLIQQEVGRAREQGEAERQQLSKVAQQLEQELQQTQESLASLGLQLEVARQGQQESTEEAASLRQELTQQQELYGQALQEKVAEVETRLREQLSDTERRLNEARREHAKAVVSLRQIQRRAAQEKERSQELRRLQEEARKEEGQRLARRLQELERDKNLMLATLQQEGLLSRYKQQRLLTVLPSLLDKKKSVVSSPRPPECSASAPVAAAVPTRESIKGSLSVLLDDLQDLSEAISKEEAVCQGDNLDRCSSSNPQMSS
GFP-NLS-EDC4(935–1437)
  percent of cells expressing both proteins with the two co-localized in nuclear dots: 96%

B2: mCh-NLS-XRN1(1232–1706) (domain or fragment)
chain: EFCNIWQSLQGSGKMQYFQPTIQEKGAVLPQEISQVNQHHKSGFNDNSVKYQQRKHDPHRKFKEECKSPKAECWSQKMSNKQPNSGIENFLASLNISKENEVQSSHHGEPPSEEHLSPQSFAMGTRMLKEILKIDGSNTVDHKNEIKQIANEIPVSSNRRDEYGLPSQPKQNKKLASYMNKPHSANEYHNVQSMDNMCWPAPSQIPPVSTPVTELSRICSLVGMPQPDFSFLRMPQTMTVCQVKLSNGLLVHGPQCHSENEAKEKAALFALQQLGSLGMNFPLPSQVFANYPSAVPPGTIPPAFPPPTGWDHYGSNYALGAANIMPSSSHLFGSMPWGPSVPVPGKPFHHTLYSGTMPMAGGIPGGVHNQFIPLQVTKKRVANKKNFENKEAQSSQATPVQTSQPDSSNIVKVSPRESSSASLKSSPIAQPASSFQVETASQGHSISHHKSTPISSSRRKSRKLAVNFGVSKPSE
[2]
  percent of cells expressing both proteins with both in nuclear dots: 94%

B3: Myc-PATL1(398–770) (domain or fragment)
chain: KDPYANLMLQREKDWVSKIQMMQLQSTDPYLDDFYYQNYFEKLEKLSAAEEIQGDGPKKERTKLITPQVAKLEHAYKPVQFEGSLGKLTVSSVNNPRKMIDAVVTSRSEDDETKEKQVRDKRRKTLVIIEKTYSLLLDVEDYERRYLLSLEEERPALMDDRKHKICSMYDNLRGKLPGQERPSDDHFVQIMCIRKGKRMVARILPFLSTEQAADILMTTARNLPFLIKKDAQDEVLPCLLSPFSLLLYHLPSVSITSLLRQLMNLPQSAATPALSNPHLTAVLQNKFGLSLLLILLSRGEDLQSSDPATESTQNNQWTEVMFMATRELLRIPQAALAKPISIPTNLVSLFSRYVDRQKLNLLETKLQLVQGIR
[2]
  percent of cells expressing both proteins with the two co-localized in nuclear dots: 97%
